T1: human B7H4 expressed on CHO cells (human, UniProt Q7Z7D3 25-282)
T1 construct: whole, on cells; also called VCTN1
T1 sequence (looked up): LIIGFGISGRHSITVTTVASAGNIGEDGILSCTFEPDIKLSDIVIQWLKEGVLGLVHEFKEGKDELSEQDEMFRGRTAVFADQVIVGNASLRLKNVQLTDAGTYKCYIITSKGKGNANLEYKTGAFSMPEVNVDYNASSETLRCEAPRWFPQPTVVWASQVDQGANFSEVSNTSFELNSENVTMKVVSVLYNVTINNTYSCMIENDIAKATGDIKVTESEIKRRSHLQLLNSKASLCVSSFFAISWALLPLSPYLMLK

B1: Ly817 (bispecific antibody, human IgG1, kappa)
heavy: QVTLKESGPALVKPTQTLTLTCTFSGFSLSTSGTCVSWIRQPPGKALEWLATICWEDSKGYNPSLKSRLTISKDTSKNQAVLTMTNMDPVDTATYYCARREDSGYFWFPYWGQGTLVTVSSASTKGPSVFPLAPSSKSTSGGTAALGCLVKDYFPEPVTVSWNSGALTSGVHTFPAVLQSSGLYSLSSVVTVPSSSLGTQTYICNVNHKPSNTKVDKKVEPKSCDKTHTCPPCPAPELLGPSVFLFPPKPKDTLMISRTPEVTCVVVDVSHEDPEVKFNWYVDGVEVHNAKTKPREEQYNSTYRVVSVLTVLHQDWLNGKEYKCKVSNKALPAPIEKTISKAKGQPREPQVYTLPPSREEMTKNQVSLTCLVKGFYPSDIAVEWESNGQPENNYKTTPPVLDSDGSFFLYSKLTVDKSRWQQGNVFSCSVMHEALHNHYTQKSLSLSPGK
light: NIQMTQSPSSLSASVGDRVTITCKAGQNVNNYLAWYQQKPGKAPKVLIFNANSLQTGVPSRFSGSGSGTDFTLTISSLQPEDFATYYCQQYNSWPTFGGGTKVEIKRTVAAPSVFIFPPSDEQLKSGTASVVCLLNNFYPREAKVQWKVDNALQSGNSQESVTEQDSKDSTYSLSSTLTLSKADYEKHKVYACEVTHQGLSSPVTKSFNRGECGGGGSGGGGSGGGGSGGGGSDIQMTQSPSSLSASVGDRVTITCKASQNIYIYLNWYQQKPGKAPKLLIYNTNNLQTGVPSRFSGSGSGTDFTLTISSLQPEDFATYYCLQHSSRRTFGGGTKVEIKGGGGSGGGGSGGGGSGGGGSQVQLVESGGGLVQPGGSLKLSCATSGFNFNDYFMNWVRQASGKGLEWVGQIRNKNYNYATYYTESLEGRVTISRDDSKNTAYLQMNSLKTEDTAVYYCTSYYYDGFADYFDYWGQGTTVTVSS
notes: Ly516 HC (IgG1 mutated Fc) + Ly516 LC-TM740 scFv VL-VH
B2: Ly819 (bispecific antibody, human IgG1, kappa)
heavy: B1 heavy
light: NIQMTQSPSSLSASVGDRVTITCKAGQNVNNYLAWYQQKPGKAPKVLIFNANSLQTGVPSRFSGSGSGTDFTLTISSLQPEDFATYYCQQYNSWPTFGGGTKVEIKRTVAAPSVFIFPPSDEQLKSGTASVVCLLNNFYPREAKVQWKVDNALQSGNSQESVTEQDSKDSTYSLSSTLTLSKADYEKHKVYACEVTHQGLSSPVTKSFNRGECGGGGSGGGGSGGGGSGGGGSDIQMTQSPSSLSASVGDRVTITCLASEDISNDLAWYQQKPGKAPKLLIYFVDRLLDGVPSRFSGSGSGTDFTLTISSLQPEDFATYYCQQSYKYPPTFGQGTKLEIKGGGGSGGGGSGGGGSGGGGSEVQLVESGGGLVQPGGSLRLSCAASGFTFTNYGLHWVRQAPGKGLEWVSSISPSGGVTYYRDSVKGRFTISRDNSKNTLYLQMNSLRAEDTAVYYCAKPFLGWGGANWIAHWGQGTLVTVSS
notes: Ly516 HC (IgG1 mutated Fc) + Ly516 LC-TM559 scFv VL-VH
B3: Ly820 (bispecific antibody, human IgG1, kappa)
heavy: B1 heavy
light: NIQMTQSPSSLSASVGDRVTITCKAGQNVNNYLAWYQQKPGKAPKVLIFNANSLQTGVPSRFSGSGSGTDFTLTISSLQPEDFATYYCQQYNSWPTFGGGTKVEIKRTVAAPSVFIFPPSDEQLKSGTASVVCLLNNFYPREAKVQWKVDNALQSGNSQESVTEQDSKDSTYSLSSTLTLSKADYEKHKVYACEVTHQGLSSPVTKSFNRGECGGGGSGGGGSGGGGSGGGGSEVQLVESGGGLVQPGGSLRLSCAASGFTFTNYGLHWVRQAPGKGLEWVSSISPSGGVTYYRDSVKGRFTISRDNSKNTLYLQMNSLRAEDTAVYYCAKPFLGWGGANWIAHWGQGTLVTVSSGGGGSGGGGSGGGGSGGGGSDIQMTQSPSSLSASVGDRVTITCLASEDISNDLAWYQQKPGKAPKLLIYFVDRLLDGVPSRFSGSGSGTDFTLTISSLQPEDFATYYCQQSYKYPPTFGQGTKLEIK
notes: Ly516 HC (IgG1 mutated Fc) + Ly516 LC-TM559 scFv VH-VL
B4: Ly818 (bispecific antibody, human IgG1, kappa)
heavy: B1 heavy
light: NIQMTQSPSSLSASVGDRVTITCKAGQNVNNYLAWYQQKPGKAPKVLIFNANSLQTGVPSRFSGSGSGTDFTLTISSLQPEDFATYYCQQYNSWPTFGGGTKVEIKRTVAAPSVFIFPPSDEQLKSGTASVVCLLNNFYPREAKVQWKVDNALQSGNSQESVTEQDSKDSTYSLSSTLTLSKADYEKHKVYACEVTHQGLSSPVTKSFNRGECGGGGSGGGGSGGGGSGGGGSQVQLVESGGGLVQPGGSLKLSCATSGFNFNDYFMNWVRQASGKGLEWVGQIRNKNYNYATYYTESLEGRVTISRDDSKNTAYLQMNSLKTEDTAVYYCTSYYYDGFADYFDYWGQGTTVTVSSGGGGSGGGGSGGGGSGGGGSDIQMTQSPSSLSASVGDRVTITCKASQNIYIYLNWYQQKPGKAPKLLIYNTNNLQTGVPSRFSGSGSGTDFTLTISSLQPEDFATYYCLQHSSRRTFGGGTKVEIK
notes: Ly516 HC (IgG1 mutated Fc) + Ly516 LC-TM740 scFv VH-VL
B5: Ly474 (bispecific antibody, human IgG1, kappa)
heavy: EVQLVESGGDLVKPGGSLKLSCAASGFTFSSYGMSWVRQTPDKRLEWVAAISTGGSYTYYPDSVKGRFTISRDTATNTLYLQMSTLKSEDTAMYYCTRRGATGSWFAYWGQGTLVTVSAASTKGPSVFPLAPSSKSTSGGTAALGCLVKDYFPEPVTVSWNSGALTSGVHTFPAVLQSSGLYSLSSVVTVPSSSLGTQTYICNVNHKPSNTKVDKKVEPKSCDKTHTCPPCPAPELLGPSVFLFPPKPKDTLMISRTPEVTCVVVDVSHEDPEVKFNWYVDGVEVHNAKTKPREEQYNSTYRVVSVLTVLHQDWLNGKEYKCKVSNKALPAPIEKTISKAKGQPREPQVYTLPPSREEMTKNQVSLTCLVKGFYPSDIAVEWESNGQPENNYKTTPPVLDSDGSFFLYSKLTVDKSRWQQGNVFSCSVMHEALHNHYTQKSLSLSPGGGGGSGGGGSGGGGSGGGGSDIQMTQSPSSLSASVGDRVTITCKASQNIYIYLNWYQQKPGKAPKLLIYNTNNLQTGVPSRFSGSGSGTDFTLTISSLQPEDFATYYCLQHSSRRTFGGGTKVEIKGGGGSGGGGSGGGGSGGGGSQVQLVESGGGLVQPGGSLKLSCATSGFNFNDYFMNWVRQASGKGLEWVGQIRNKNYNYATYYTESLEGRVTISRDDSKNTAYLQMNSLKTEDTAVYYCTSYYYDGFADYFDYWGQGTTVTVSS
light: DILMTQSPSSMSVSLGDTVSITCHASQGINNNIGWLQRKPGKSFKGLIYHGTNLEDGVPSRFSGSGSGADYSLTISSLESEDFADYYCVQYVQFPRTFGGGTKLEIKRTVAAPSVFIFPPSDEQLKSGTASVVCLLNNFYPREAKVQWKVDNALQSGNSQESVTEQDSKDSTYSLSSTLTLSKADYEKHKVYACEVTHQGLSSPVTKSFNRGEC
notes: Ly361 HC (IgG1 mutated Fc)-TM740 scFv VL-VH + Ly361 LC
B6: Ly496 (bispecific antibody, human IgG1, kappa)
heavy: EVQLVESGGGLVKPGGSLKLSCAASGFTFSDSGMHWVRQAPEKGLEWITYINSGSSTIYYADSVKGRFTISRDNAKNTLFLQMTSLRSEDTAMYYCARGRGYAMDYWGQGTSVTVSSASTKGPSVFPLAPSSKSTSGGTAALGCLVKDYFPEPVTVSWNSGALTSGVHTFPAVLQSSGLYSLSSVVTVPSSSLGTQTYICNVNHKPSNTKVDKKVEPKSCDKTHTCPPCPAPELLGPSVFLFPPKPKDTLMISRTPEVTCVVVDVSHEDPEVKFNWYVDGVEVHNAKTKPREEQYNSTYRVVSVLTVLHQDWLNGKEYKCKVSNKALPAPIEKTISKAKGQPREPQVYTLPPSREEMTKNQVSLTCLVKGFYPSDIAVEWESNGQPENNYKTTPPVLDSDGSFFLYSKLTVDKSRWQQGNVFSCSVMHEALHNHYTQKSLSLSPGK
light: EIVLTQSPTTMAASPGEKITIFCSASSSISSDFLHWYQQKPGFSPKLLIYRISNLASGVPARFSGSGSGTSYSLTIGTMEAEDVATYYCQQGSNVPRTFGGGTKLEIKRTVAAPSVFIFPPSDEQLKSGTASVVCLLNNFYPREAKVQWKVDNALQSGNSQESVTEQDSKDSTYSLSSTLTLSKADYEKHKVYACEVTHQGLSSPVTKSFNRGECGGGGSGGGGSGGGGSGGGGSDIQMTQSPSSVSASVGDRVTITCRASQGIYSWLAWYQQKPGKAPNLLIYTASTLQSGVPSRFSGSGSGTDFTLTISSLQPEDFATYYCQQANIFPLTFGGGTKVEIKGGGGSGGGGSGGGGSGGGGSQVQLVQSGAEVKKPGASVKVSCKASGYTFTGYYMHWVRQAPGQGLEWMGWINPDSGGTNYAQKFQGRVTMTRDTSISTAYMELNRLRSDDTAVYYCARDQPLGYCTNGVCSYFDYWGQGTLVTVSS
notes: Ly366 HC (IgG1 mutated Fc) + Ly366 LC-Ly253 scFv VL-VH
B7: Ly497 (bispecific antibody, human IgG1, kappa)
heavy: B6 heavy
light: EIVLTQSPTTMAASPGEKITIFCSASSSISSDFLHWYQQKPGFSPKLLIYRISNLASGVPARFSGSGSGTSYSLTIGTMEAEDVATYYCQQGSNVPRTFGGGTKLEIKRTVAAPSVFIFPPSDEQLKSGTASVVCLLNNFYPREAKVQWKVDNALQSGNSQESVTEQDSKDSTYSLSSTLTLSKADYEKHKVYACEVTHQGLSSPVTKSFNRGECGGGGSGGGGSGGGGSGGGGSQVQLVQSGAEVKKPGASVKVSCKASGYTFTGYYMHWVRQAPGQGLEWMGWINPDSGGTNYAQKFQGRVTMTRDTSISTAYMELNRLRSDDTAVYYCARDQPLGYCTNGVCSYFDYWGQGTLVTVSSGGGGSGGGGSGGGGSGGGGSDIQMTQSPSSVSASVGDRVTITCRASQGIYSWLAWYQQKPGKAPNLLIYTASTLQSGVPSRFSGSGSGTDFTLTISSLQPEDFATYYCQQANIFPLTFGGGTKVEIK
notes: Ly366 HC (IgG1 mutated Fc) + Ly366 LC-Ly253 scFv VH-VL
B8: Ly342 (bispecific antibody, human IgG1, kappa)
heavy: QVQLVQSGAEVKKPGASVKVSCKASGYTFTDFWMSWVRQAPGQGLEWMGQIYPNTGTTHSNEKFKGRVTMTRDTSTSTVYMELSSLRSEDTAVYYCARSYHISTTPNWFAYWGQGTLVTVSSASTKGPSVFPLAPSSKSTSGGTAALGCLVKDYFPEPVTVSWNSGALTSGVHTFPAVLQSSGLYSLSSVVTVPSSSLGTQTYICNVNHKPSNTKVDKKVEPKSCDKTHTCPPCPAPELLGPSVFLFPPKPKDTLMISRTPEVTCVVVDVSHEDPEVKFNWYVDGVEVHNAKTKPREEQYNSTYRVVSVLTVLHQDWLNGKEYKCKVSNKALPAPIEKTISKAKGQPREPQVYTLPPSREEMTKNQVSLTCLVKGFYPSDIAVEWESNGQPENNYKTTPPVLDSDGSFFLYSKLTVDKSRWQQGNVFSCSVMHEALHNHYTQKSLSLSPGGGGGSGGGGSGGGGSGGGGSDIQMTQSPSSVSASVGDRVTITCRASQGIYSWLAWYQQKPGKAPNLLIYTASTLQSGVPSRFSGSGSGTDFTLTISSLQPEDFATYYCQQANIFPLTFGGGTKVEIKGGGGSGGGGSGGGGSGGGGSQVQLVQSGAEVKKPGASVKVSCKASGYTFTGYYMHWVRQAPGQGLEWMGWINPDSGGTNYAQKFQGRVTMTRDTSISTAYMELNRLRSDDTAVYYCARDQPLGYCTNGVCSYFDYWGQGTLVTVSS
light: DIQMTQSPSSLSASVGDRVTITCKASQNVYKKLEWYQQKPGKVPKVLIYHTNILQTGVPSRFSGSGSGTDYTLTISSLQPEDVATYYCYQWNSGPTFGGGTKVEIKRTVAAPSVFIFPPSDEQLKSGTASVVCLLNNFYPREAKVQWKVDNALQSGNSQESVTEQDSKDSTYSLSSTLTLSKADYEKHKVYACEVTHQGLSSPVTKSFNRGEC
notes: Ly076 HC (IgG1 mutated Fc)-Ly253 scFv VL-VH + Ly076 LC
B9: Ly343 (bispecific antibody, human IgG1, kappa)
heavy: QVQLVQSGAEVKKPGASVKVSCKASGYTFTDFWMSWVRQAPGQGLEWMGQIYPNTGTTHSNEKFKGRVTMTRDTSTSTVYMELSSLRSEDTAVYYCARSYHISTTPNWFAYWGQGTLVTVSSASTKGPSVFPLAPSSKSTSGGTAALGCLVKDYFPEPVTVSWNSGALTSGVHTFPAVLQSSGLYSLSSVVTVPSSSLGTQTYICNVNHKPSNTKVDKKVEPKSCDKTHTCPPCPAPELLGPSVFLFPPKPKDTLMISRTPEVTCVVVDVSHEDPEVKFNWYVDGVEVHNAKTKPREEQYNSTYRVVSVLTVLHQDWLNGKEYKCKVSNKALPAPIEKTISKAKGQPREPQVYTLPPSREEMTKNQVSLTCLVKGFYPSDIAVEWESNGQPENNYKTTPPVLDSDGSFFLYSKLTVDKSRWQQGNVFSCSVMHEALHNHYTQKSLSLSPG
light: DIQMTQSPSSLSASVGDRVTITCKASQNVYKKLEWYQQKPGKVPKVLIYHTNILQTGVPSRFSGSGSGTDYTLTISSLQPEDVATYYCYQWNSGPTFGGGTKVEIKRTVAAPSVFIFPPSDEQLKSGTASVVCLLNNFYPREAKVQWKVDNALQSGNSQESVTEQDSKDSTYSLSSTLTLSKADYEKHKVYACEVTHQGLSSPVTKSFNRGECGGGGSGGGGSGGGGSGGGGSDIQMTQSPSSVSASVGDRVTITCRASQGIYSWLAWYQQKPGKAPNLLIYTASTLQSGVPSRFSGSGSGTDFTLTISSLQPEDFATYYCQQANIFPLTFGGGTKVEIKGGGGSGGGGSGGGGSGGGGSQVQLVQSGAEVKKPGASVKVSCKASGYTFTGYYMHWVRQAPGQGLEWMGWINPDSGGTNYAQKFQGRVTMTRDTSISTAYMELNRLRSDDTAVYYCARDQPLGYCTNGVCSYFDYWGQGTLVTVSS
notes: Ly076 HC (IgG1 mutated Fc) + Ly076 LC-Ly253 scFv VL-VH

biological target: T2, human PD-1 expressed on CHO cells (human, UniProt Q15116 25-288); assay: FACS, CHO cells
T2 construct: whole, on cells; also used for human PD-1 on Jurkat reporter cells; also called Jurkat/NFkB-Luci/PD-1 cells
T2 sequence (Q15116 25-288): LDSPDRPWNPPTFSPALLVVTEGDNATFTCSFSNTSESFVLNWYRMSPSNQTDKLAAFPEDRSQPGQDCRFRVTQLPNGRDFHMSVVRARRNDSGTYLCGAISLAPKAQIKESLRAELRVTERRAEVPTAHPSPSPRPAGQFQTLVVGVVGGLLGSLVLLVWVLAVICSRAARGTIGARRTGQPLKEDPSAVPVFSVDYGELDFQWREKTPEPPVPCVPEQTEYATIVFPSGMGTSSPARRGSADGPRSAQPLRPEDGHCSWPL

Binder	binding result
B1	binds
B2	binds
B3	binds
B4	binds

biological target: T1, human B7H4 expressed on CHO cells; assay: FACS, CHO cells

Binder	binding result
B5	binds
B6	binds
B7	binds

biological target: T3, human CD40 expressed on CHO cells (human, UniProt P25942 21-277); assay: FACS, CHO cells
T3 construct: whole, on cells; also used for the reporter cells over-expressing human CD40; also called cellular CD40; CHO-CD40 cells
T3 sequence (P25942 21-277): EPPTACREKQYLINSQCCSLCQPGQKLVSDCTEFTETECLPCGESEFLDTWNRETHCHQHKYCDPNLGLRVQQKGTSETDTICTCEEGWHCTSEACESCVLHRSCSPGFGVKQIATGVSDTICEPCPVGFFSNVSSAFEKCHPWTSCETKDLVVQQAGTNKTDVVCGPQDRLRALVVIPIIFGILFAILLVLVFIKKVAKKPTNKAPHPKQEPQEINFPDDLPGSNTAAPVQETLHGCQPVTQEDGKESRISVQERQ

Binder	binding result
B5	binds
B8	binds
B9	binds
B1	binds
B2	binds
B3	binds
B4	binds
B6	binds
B7	binds

biological target: T4, Ly090 (human CD40 ECD protein with His tag) (human, UniProt P25942 21-193); assay: bridging ELISA, coated CD40 ECD-His, soluble PD-L1 ECD-mFc
T4 construct: extracellular domain; also called human CD40 ECD protein (His tag); recombinant human CD40; not shown: His tag
T4 sequence (P25942 21-193): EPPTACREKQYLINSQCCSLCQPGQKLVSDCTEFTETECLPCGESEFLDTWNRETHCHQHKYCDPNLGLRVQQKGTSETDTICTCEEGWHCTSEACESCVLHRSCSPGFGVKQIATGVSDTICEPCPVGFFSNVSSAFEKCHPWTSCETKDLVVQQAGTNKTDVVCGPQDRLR
Experimental: Exemplary anti-PD-L1/CD40 bi-specific antibodies were analyzed by ELISA for their simultaneous binding to recombinant human PD-L1 and human CD40. Briefly, Ly090 (human CD40 ECD protein with His tag) was diluted and coated onto an ELISA plate with a volume of 100 μL/well by incubation at 4° C. overnight. The next day, the plate was blocked by PBST-BSA buffer, then serially diluted samples of anti-PD-L1/CD40 bi-specific antibodies were pipetted into appropriate wells at 50 μL/well, and the plate was incubated for 1 h followed by Washing. Human PD-L1 ECD protein (mouse IgG2a Fc tag) was added into the plate at 50 μL/well. After 1-hour incubation at room temperature, HRP-conjugated anti-Mouse IgG, Fc G2a antibody was added into the plate at 100 μL/well. The plate was incubated for 1 hour at room temperature followed by washing. TMB substrate solution was added at 100 μL/well and the color development was stopped by adding 100 uL/well Stop Solution (2N H₂SO₄). Absorbance at 450 nm and 620 nm was read by Tecan F200 Pro plate reader. GraphPad 7.0, “[Agonist] vs. response—Variable slope (four parameters)” was used to plot the binding data and calculate binding EC50 values.

Binder	binding result
B8	binds
B9	binds

Reference: patent US20220372155A1 (LYVGEN BIOPHARMA, published 2022)
